Results published in patent EP4810057A1.

Assays:
Test in all cases: BLI, mAb on Protein A or AMC2 sensor, 1:1 fit
[1] = target: SCB-1019T(A) (respiratory syncytial virus subtype A (A2 strain))
[2] = target: WT-F-Trimer (respiratory syncytial virus, subtype not given)
[3] = target: commercial GSK vaccine F protein control
[4] = target: SCB-1019T(B) (respiratory syncytial virus subtype B (Australian RSV B strain))

| Substance | Kd [1] | RLU(nm) [1] | koff [1] | RLU(nm) [2] | Kd [3] | RLU(nm) [3] | koff [3] | Kd [4] | RLU(nm) [4] | koff [4] | kon [4] | Kd [2] | koff [2] | kon [2] | kon [3] | kon [1] |
| --- | --- | --- | --- | --- | --- | --- | --- | --- | --- | --- | --- | --- | --- | --- | --- | --- |
| AM14 (antibody) | 0.382 nM | 0.693 nm | 5.67e-05 s⁻¹ | 0 nm | 0.484 nM | 1.34 nm | 0.000364 s⁻¹ | 0.2 nM | 0.534 nm | 4.43e-05 s⁻¹ | 222000 M⁻¹ s⁻¹ | – | – | – | – | – |
| hRSV90 (antibody) | < 0.001 nM | 0.928 nm | < 1e-07 s⁻¹ | 0.0884 nm | 0.771 nM | 1.03 nm | 0.000218 s⁻¹ | 1.94 nM | 0.068 nm | 0.00153 s⁻¹ | 788000 M⁻¹ s⁻¹ | 12.7 nM | 0.000271 s⁻¹ | 21400 M⁻¹ s⁻¹ | 282000 M⁻¹ s⁻¹ | – |
| D25 (antibody) | 0.114 nM | 1.19 nm | 3.38e-05 s⁻¹ | 0.266 nm | 0.221 nM | 1.11 nm | 0.000104 s⁻¹ | 0.247 nM | 1.5 nm | 0.000112 s⁻¹ | – | < 0.001 nM | < 1e-07 s⁻¹ | 12100 M⁻¹ s⁻¹ | 472000 M⁻¹ s⁻¹ | 296000 M⁻¹ s⁻¹ |
| AM22 (antibody) | 0.209 nM | 1.13 nm | 2.1e-05 s⁻¹ | 0.123 nm | 0.644 nM | 1.42 nm | 0.000196 s⁻¹ | 0.495 nM | 1.1 nm | 3.99e-05 s⁻¹ | 80700 M⁻¹ s⁻¹ | < 0.001 nM | < 1e-07 s⁻¹ | – | 304000 M⁻¹ s⁻¹ | – |
| MPE8 (antibody) | < 0.001 nM | 0.59 nm | < 1e-07 s⁻¹ | 0.0968 nm | 2.22 nM | 0.815 nm | 0.000353 s⁻¹ | 0.771 nM | 0.672 nm | 3.43e-05 s⁻¹ | – | 22.1 nM | 0.000226 s⁻¹ | – | – | 4.12e+06 M⁻¹ s⁻¹ |
